Paper PMC3917506

Target: mRFP1-Rac1 (wild type) (human), P63000
Assay: FRET or BRET
Conditions: remark: other sources report otherwise

- average FRET efficiency E%: 14%
B1: Teal-N-WASP, O00401 1-505 (natural protein)
chain: MSSVQQQPPPPRRVTNVGSLLLTPQENESLFTFLGKKCVTMSSAVVQLYAADRNCMWSKKCSGVACLVKDNPQRSYFLRIFDIKDGKLLWEQELYNNFVYNSPRGYFHTFAGDTCQVALNFANEEEAKKFRKAVTDLLGRRQRKSEKRRDPPNGPNLPMATVDIKNPEITTNRFYGPQVNNISHTKEKKKGKAKKKRLTKADIGTPSNFQHIGHVGWDPNTGFDLNNLDPELKNLFDMCGISEAQLKDRETSKVIYDFIEKTGGVEAVKNELRRQAPPPPPPSRGGPPPPPPPPHNSGPPPPPARGRGAPPPPPSRAPTAAPPPPPPSRPSVAVPPPPPNRMYPPPPPALPSSAPSGPPPPPPSVLGVGPVAPPPPPPPPPPPGPPPPPGLPSDGDHQVPTTAGNKAALLDQIREGAQLKKVEQNSRPVSCSGRDALLDQIRQGIQLKSVADGQESTPPTPAPTSGIVGALMEVMQKRSKAIHSSDEDEDEDDEEDFEDDDEWED
